Measured values taken from publication PMC3202562, “A Broad Set of Different Llama Antibodies Specific for a 16 kDa Heat Shock Protein of Mycobacterium tuberculosis” (PLoS ONE, 2011).
Read-outs that look alike come from different tables or passages of the source.

B1: A-93 (VHH)
VHH: QVQLQESGGGLVQAGGSLRLSCAASRRLYSSYSLGWFRQAPGKEREFVAALGWIANGTYYADSAKGRFTISRGNAMVFLQMNSLKSEDTAVYYCAARLGSVREAPREYTYWGQGTQVTVSS
B2: VHH A-28 (VHH)
VHH: QVQLQDSGGGLVQAGDSLRLSCTYSGRSFSNHAMGWFRQAPGKERGFVAAIGWINGGTYYADSVKGRFIISRDNDKNTLYLQMNNLKPEDTAVYYCAARNALRSISFNLSEYAYWGQGTQVTVSS
notes: source: E. coli BL21-AI, purified (urea lysis, Ni-NTA)

What was measured:
[1] = molecular target: 16 kDa heat shock protein of M. tuberculosis, in M. tuberculosis lysate (Mycobacterium tuberculosis (lysates of …, UniProt P9WMK1))
[2] = molecular target: T1, purified recombinant 16 kDa heat shock protein of M. tuberculosis (Mycobacterium tuberculosis, UniProt P9WMK1)
[3] = molecular target: T1, purified recombinant 16 kDa heat shock …; test: far-Western, overlay or dot blot; conditions: both partners purified

T1 sequence (P9WMK1 whole entry): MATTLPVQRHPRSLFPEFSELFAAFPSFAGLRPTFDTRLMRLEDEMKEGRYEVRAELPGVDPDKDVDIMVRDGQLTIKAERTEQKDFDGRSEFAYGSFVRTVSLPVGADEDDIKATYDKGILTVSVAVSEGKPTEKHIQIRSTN
Sequence of 16 kDa heat shock protein of M. tuberculosis, in M. tuberculosis lysate (Mycobacterium tuberculosis (P9WMK1 whole entry): as above

Row | Binder | binding result [1] | binding result [2] | binding result [3]
1 | B1 | binds | binds | –
2 | B2 | – | – | binds
